This note sets out measurements from article PMC3431187 (Molecular cell, 2012).

T1: rhophilin 2-PDZ K576A/K579A (human, UniProt Q8IUC4 515-593, K576A | K579A)
T1 sequence (looked up): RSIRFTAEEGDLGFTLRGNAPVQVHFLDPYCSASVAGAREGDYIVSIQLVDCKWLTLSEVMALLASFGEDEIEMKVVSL

T2: rhophilin 2-PDZ K576E/K579E (human, UniProt Q8IUC4 515-593, K576E | K579E)
T2 sequence (looked up): T1 sequence (looked up) with A62E, A65E

B1: rhophilin 2-PDZ (PDZ domain of rhophilin-2), wild type (domain or fragment, human, UniProt Q8IUC4 515-593, looked up)
chain: T1 sequence (looked up) with A62K, A65K
B2: F-Ahx-EYLGLDVPV (N-fluorescein-labeled ErbB2 C-terminal peptide) (peptide)
peptide: {fluorescein-Ahx}-EYLGLDVPV

Where a chain is given by its changes, count along the chain named. No end group written: not given here. fluorescein = fluorescein label on the N-terminus, attached through a 6-aminohexanoyl (Ahx) spacer; Ahx = NCCCCCC(=O)O

Assay [1] has as its target tamalin-PDZ (PDZ domain of tamalin), wild type (mouse, UniProt Q9JJA9 100-186). Nature of the assay: fluorescence polarisation. A general note: In fluorescence polarisation assays a small probe gives low polarisation when free and higher when bound to something large.
Assay [2] concerns the target other peptides (tested with rhophilin 2-PDZ, Table S4). Nature of the assay: fluorescence polarisation.
Assay [3] deals with B2. Nature of the assay: fluorescence polarisation.
For assay [4], the target named is B1. Nature of the assay: fluorescence polarisation.
The target of assay [5] is B1. Nature of the assay: pull-down.
Assay [6] addresses T1, rhophilin 2-PDZ K576A/K579A. Nature of the assay: pull-down.
Assay [7] has as its target T2, rhophilin 2-PDZ K576E/K579E. Nature of the assay: pull-down.

tamalin-PDZ (PDZ domain of tamalin), wild type, sequence (Q9JJA9 100-186): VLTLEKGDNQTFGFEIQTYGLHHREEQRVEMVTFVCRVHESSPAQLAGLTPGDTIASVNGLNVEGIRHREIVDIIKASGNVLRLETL

As for {fluorescein-Ahx}-IRDYTQSSSSL [F-Ahx-IRDYTQSSSSL (N-terminal-fluorescein-labeled mGluR5 C-terminal peptide)], the binding result in assay [1] is recorded as “binds”.
For B1, in assay [2], the fold decrease in affinity with PM vesicles against without is below 1.8 fold. The “fold increase in affinity with PM vesicles against without” value in assay [3] was 2 fold.
Regarding B2, the binding result in assay [4] was “binds”.
{GST}-EYLGLDVPV [GST-EYLGLDVPV (GST fusion of the C-terminal peptide of ErbB2)]: the binding result in assay [5], in assay [6] and in assay [7] was “binds” throughout.
